Columns and labels:
[1] = molecular target: soluble mouse Fcγ-receptor IV (mouse); assay: ratio of SPR KA values
[2] = molecular target: soluble mouse Fcγ-receptor IIB (mouse) (UniProt P08101); assay: SPR (Biacore), soluble receptor injected over immobilized antibody, 1:1 Langmuir
[3] = molecular target: soluble mouse Fcγ-receptor III (mouse) (UniProt P08508); assay: as above
[4] = molecular target: soluble mouse Fcγ-receptor IV (mouse); assay: as above
[5] = molecular target: soluble mouse Fcγ-receptor I (mouse) (UniProt P26151); assay: as above
[6] = molecular target: soluble human Fcγ-receptor IIA (131H-allele) (human) (UniProt P12318); assay: ratio of SPR KA values
[7] = molecular target: soluble human Fcγ-receptor IIB (human) (UniProt P31994); assay: SPR, soluble human Fcγ-receptor and human IgG isotype
[8] = molecular target: soluble human Fcγ-receptor IIA (131H-allele) (human) (UniProt P12318); assay: as above
[9] = molecular target: soluble version of the extracellular domain of gp75; assay: SPR; soluble gp75 extracellular domain injected over immobilized antibody
[10] = molecular target: soluble human Fcγ-receptor IIIA (158F-allele) (human) (UniProt P08637); assay: ratio of SPR KA values
[11] = molecular target: soluble human Fcγ-receptor IIIA (158F-allele) (human) (UniProt P08637); assay: SPR, soluble human Fcγ-receptor and human IgG isotype
[12] = molecular target: soluble mouse Fcγ-receptor IV (mouse); assay: SPR
[13] = molecular target: soluble mouse Fcγ-receptor III (mouse) (UniProt P08508); assay: ratio of SPR KA values
[14] = molecular target: soluble mouse Fcγ-receptor IIB (mouse) (UniProt P08101); assay: SPR

Sequence of soluble human Fcγ-receptor IIB (human) (P31994 43-217): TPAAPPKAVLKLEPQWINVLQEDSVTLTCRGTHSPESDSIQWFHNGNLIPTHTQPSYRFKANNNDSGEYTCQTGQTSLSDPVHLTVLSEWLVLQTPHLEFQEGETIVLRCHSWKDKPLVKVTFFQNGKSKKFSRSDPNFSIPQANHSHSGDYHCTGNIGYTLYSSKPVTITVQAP
Sequence of soluble human Fcγ-receptor IIA (131H-allele) (human) (P12318 34-217): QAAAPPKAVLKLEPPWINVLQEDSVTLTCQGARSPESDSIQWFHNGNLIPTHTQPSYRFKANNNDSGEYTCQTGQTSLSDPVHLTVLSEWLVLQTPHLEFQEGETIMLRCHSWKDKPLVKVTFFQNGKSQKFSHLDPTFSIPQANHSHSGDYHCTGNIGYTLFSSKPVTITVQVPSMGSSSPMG
Sequence of soluble human Fcγ-receptor IIIA (158F-allele) (human) (P08637 17-208): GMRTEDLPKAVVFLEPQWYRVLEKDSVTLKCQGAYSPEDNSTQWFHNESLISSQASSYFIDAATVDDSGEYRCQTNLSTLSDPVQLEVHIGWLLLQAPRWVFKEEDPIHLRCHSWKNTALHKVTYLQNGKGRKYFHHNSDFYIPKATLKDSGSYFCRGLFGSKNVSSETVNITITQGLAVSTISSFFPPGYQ
Sequence of soluble mouse Fcγ-receptor III (mouse) (P08508 other isoform, or with tags, fused parts or gaps): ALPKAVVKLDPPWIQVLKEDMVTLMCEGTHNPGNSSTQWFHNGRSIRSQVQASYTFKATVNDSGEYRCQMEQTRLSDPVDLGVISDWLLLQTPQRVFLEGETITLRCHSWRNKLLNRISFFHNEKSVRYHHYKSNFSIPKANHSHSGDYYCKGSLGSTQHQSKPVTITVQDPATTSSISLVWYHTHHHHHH
Sequence of soluble mouse Fcγ-receptor IIB (mouse) (P08101 other isoform, or with tags, fused parts or gaps): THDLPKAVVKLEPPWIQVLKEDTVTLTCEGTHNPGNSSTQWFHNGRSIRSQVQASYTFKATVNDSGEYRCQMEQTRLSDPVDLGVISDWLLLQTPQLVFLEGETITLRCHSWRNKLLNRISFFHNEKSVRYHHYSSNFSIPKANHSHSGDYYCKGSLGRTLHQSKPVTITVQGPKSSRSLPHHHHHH
Sequence of soluble mouse Fcγ-receptor I (mouse) (P26151 other isoform, or with tags, fused parts or gaps): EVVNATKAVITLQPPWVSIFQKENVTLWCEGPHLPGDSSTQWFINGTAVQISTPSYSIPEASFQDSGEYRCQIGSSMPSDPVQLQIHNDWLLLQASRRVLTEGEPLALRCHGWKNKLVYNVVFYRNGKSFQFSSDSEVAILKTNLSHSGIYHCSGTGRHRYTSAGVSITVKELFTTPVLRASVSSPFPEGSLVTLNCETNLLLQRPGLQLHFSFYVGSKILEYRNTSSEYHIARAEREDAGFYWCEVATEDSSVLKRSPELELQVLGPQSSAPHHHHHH

Substance	A/I (ratio of sFcγRIV to sFcγRIIB) [1]	Ka [2] [M⁻¹]	Ka [3] [M⁻¹]	Ka [4] [M⁻¹]	A/I IIA/IIB (ratio of affinity to that for FcγRIIB) [6]	Ka [7] [M⁻¹]	Ka [8] [M⁻¹]	Ka [9] [M⁻¹]	Kd [9] [nM]	A/I IIIA/IIB (ratio of affinity to that for FcγRIIB) [10]	Ka [11] [M⁻¹]	further results
TA99-IgG2a deficient in fucose (antibody)	92	3.34e+06	1.54e+06	3.06e+08								Ka [5]: 1.8e+08 M⁻¹
human IgG4 antibody isotype					0.7	48000	35000					
TA99-IgG2b (fucose-containing) (antibody)	7	2.23e+06	640000	1.7e+07				1.8e+09	0.57			fold higher affinity than to FcγRIIB [12]: 10 fold
human IgG2 antibody isotype lacking fucose					5.3	26000	130000			5.7	140000	
human IgG2 antibody isotype					4.5	30000	140000			0.4	14000	
TA99-IgG1 deficient in fucose (antibody)		1.32e+06	510000									A/I (ratio of affinity for sFcγRIII to that for FcγRIIB) [13]: 0.4

Further lines, with some results ahead:

A/I (ratio of sFcγRIV to sFcγRIIB) [1]	Ka [2] [M⁻¹]	Ka [3] [M⁻¹]	Ka [4] [M⁻¹]	A/I IIA/IIB (ratio of affinity to that for FcγRIIB) [6]	Ka [7] [M⁻¹]	Ka [8] [M⁻¹]	Ka [9] [M⁻¹]	Kd [9] [nM]	A/I IIIA/IIB (ratio of affinity to that for FcγRIIB) [10]	Ka [11] [M⁻¹]	Substance	further results
							1.5e+09	0.66			TA99-IgG3 (antibody)	
				3.1	78000	250000			5.5	430000	human IgG1 antibody isotype	
69	420000	680000	2.9e+07				1.6e+09	0.61			TA99-IgG2a (fucose-containing) (antibody)	fold higher affinity than to FcγRIIB [12]: 10 fold; Ka [5]: 1.6e+08 M⁻¹
20	1e+07	1.06e+06	2.03e+08								TA99-IgG2b deficient in fucose (antibody)	
				3.1	78000	240000			76	6e+06	human IgG1 antibody isotype lacking fucose	
	3.33e+06	310000					2.7e+09	0.38			TA99-IgG1 (fucose-containing) (antibody)	A/I (ratio of affinity for sFcγRIII to that for FcγRIIB) [13]: 0.1; fold higher affinity than to FcγRIII [14]: 10 fold
